Data on one molecule can be found in patent US20100297703A1 (published 2010).

Holding throughout (experiment): anti-FLAG purification of YoeB-3×FLAG from cell surface extract, SDS-PAGE band integration of the co-purified protein
One test concerns the target YojL protein (Bacillus subtilis, UniProt O31852 27-414). As to the method:
(§1) After the pre-culture, the pre-cultured strain was inoculated in 50 ml of LB liquid medium to bring the OD₆₀₀ value to 0.01, and main culture was conducted until the OD₆₀₀ value reached 2.0. After the completion of the culture, the culture solution was centrifuged at 10,000 rpm for 10 minutes. The supernatant was removed and the precipitate was washed with 25 mM Tris-HCl (pH 7.2). The washed precipitate was suspended in 3M LiCl (25 mM Tris-HCl, pH 7.2) to a density of 10 μl/OD, and the suspension was allowed to stand on ice for 20 minutes. Thereafter, centrifugation was carried out at 4° C. and 10,000 rpm for 10 minutes. The supernatant was recovered, TCA (trichloroacetic acid) was added to a final concentration of 5%, the mixture was thoroughly mixed, and the resulting suspension was allowed to stand on ice for 60 minutes. Thereafter, centrifugation was carried out at 4° C. and 15,000 rpm for 5 minutes. The supernatant was removed, and the precipitate was rinsed with 70% ethanol to thoroughly remove TCA. Thus, outer surface proteins were extracted from the WE1YoeB3FL strain and the WE1E3FL strain, respectively.
(§2) The mixture was mildly (8 rpm) agitated at 4° C. for 1 hour. Thereafter, centrifugation was carried out at 5,000 rpm for 1 minute. The supernatant was removed while carefully refraining from suctioning the precipitated gel. Thereafter, 500 μl of TBS buffer was added to prepare a suspension. Thereafter, the gel was transferred to the Spin Column (Micro Bio Spin Chromatography Columns (BIO RAD)), and the gel was trapped via centrifugation at 1,000 g for 30 seconds. Thereafter, the resultant was washed three times with 500 μl of TBS buffer. Subsequently, 100 μl of Glycine HCl elution buffer (0.1M glycine-HCl) was sequentially added thereto and thoroughly agitated. Elution was carried out 1 minute later at 1,000 g for 30 seconds, and this procedure was repeated two times. The products were combined to prepare an eluted solution.
(§3) Subsequently, the band pattern of the resulting eluted solution was inspected via SDS-PAGE. Electrophoresis was carried out by charging proteins in amounts corresponding to the amount extracted from the cells (OD₆₀₀=200) to the relevant lanes.

The target of another test is T1, CwlE protein (Bacillus subtilis, UniProt O07532 27-488).
T1 construct: Endogenous protein of the WE1YoeB3FL strain, co-purified with YoeB-3×FLAG
T1 sequence (O07532 27-488 limits assumed): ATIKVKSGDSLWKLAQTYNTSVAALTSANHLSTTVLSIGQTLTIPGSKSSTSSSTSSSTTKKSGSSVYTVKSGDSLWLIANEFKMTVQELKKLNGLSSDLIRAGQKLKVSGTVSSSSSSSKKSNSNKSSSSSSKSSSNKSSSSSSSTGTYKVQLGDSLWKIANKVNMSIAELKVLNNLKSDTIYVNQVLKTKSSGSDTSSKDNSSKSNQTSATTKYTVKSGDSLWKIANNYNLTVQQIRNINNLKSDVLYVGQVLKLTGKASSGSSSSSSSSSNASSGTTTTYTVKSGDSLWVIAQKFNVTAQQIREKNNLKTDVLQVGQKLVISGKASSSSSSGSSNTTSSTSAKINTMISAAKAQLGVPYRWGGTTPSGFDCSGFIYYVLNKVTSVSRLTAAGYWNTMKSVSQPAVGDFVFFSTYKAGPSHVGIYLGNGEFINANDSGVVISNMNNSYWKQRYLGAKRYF
As to the method:
as §1, §2, §3

For a further test, the target named is T2, CwlF protein (Bacillus subtilis, UniProt P54421 26-334).
T2 construct: Endogenous protein of the WE1YoeB3FL strain, co-purified with YoeB-3×FLAG
T2 sequence (P54421 26-334 limits assumed): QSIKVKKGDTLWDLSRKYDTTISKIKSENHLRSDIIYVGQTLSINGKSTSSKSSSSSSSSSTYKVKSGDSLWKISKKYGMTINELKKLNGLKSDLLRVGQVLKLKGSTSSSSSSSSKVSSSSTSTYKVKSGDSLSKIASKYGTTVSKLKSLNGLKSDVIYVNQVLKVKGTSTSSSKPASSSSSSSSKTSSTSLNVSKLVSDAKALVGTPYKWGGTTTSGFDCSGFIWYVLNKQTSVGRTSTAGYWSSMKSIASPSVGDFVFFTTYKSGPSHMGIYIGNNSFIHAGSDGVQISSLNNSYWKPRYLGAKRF
As to the method:
as §1, §2, §3

B1: YoeB-3×FLAG protein (other)
chain: KNTSGDLSQKQALQLALSAREHFWNTMSGHNPKVKKAVCPSGTFEYQNLQYVYMCSDLGTKAKAVNYLTPIFTKTAIEKGFKDYHFTVSKGKLAVPIGDGDNLLNWKKSTAKLISKKGSTITYEFTVPTLDGSPSAKRKVTFVKENKKWKVNQFDAVI
notes: Expressed in B. subtilis WE1 from pCA3FLYoeB with IPTG, extracted from the cell surface with LiCl and purified on anti-FLAG M2 gel; also called YoeB protein (bait from the WE1YoeB3FL strain); not shown: 3×FLAG tag
For B1, in the test with YojL protein, the Integrated value was 989, the “Integrated value/Molecular weight” value came to 0.02 and the “Proportion relative to YoeB (1)” value was 0.03. Moreover, in the test with CwlE protein, the Integrated value stood at 30100, the “Integrated value/Molecular weight” value is 0.59 and the “Proportion relative to YoeB (1)” value was determined as 0.89. In the test with CwlF protein, the Integrated value worked out at 1250, the “Integrated value/Molecular weight” value was 0.03 and the “Proportion relative to YoeB (1)” value amounted to 0.05.
